Data from publication PMC5021521, “Coordinated recruitment of Spir actin nucleators and myosin V motors to Rab11 vesicle membranes” (eLife, 2016).
Substitutions are numbered along the chain they refer to. Names and notes keep the numbering of the source.

Legend:
[1] = tested on: Myc-Spir-2; assay: Colocalization with Spir-2 on vesicular structures in HeLa cells; type: cell-based, Homo sapiens; conditions: full-length proteins co-expressed
Protocol: HeLa cells were seeded on microscope cover glasses and transfected with Myc-epitope-tagged Spir-2 proteins and fluorescently-tagged MyoV and Rab11 proteins as described above. Cells were fixed with paraformaldehyde (3.7% in 1x PBS) for 20 min at 4°C and subsequently permeabilized using 0.2% Triton X-100 (in 1x PBS) for 3.5 min, room temperature. […] Finally, cells were mounted on microscope slides with Mowiol and analyzed with a Leica AF6000LX fluorescence microscope, equipped with a Leica HCX PL APO 63x/1.3 GLYC objective and a Leica DFC350 FX digital camera (1392 × 1040 pixels, 6.45 × 6.45 µm pixel size). 3D stacks were recorded and processed with the Leica deconvolution software module. In case of the MyoVa autoregulation/activation experiments, we quantified the MyoVa expression levels. […] In order to clearly distinguish between vesicular and cytoplasmic MyoVa localization, we imaged either high or low expressing cells and determined the sum of pixel gray values per cell as a measure for the MyoVa expression levels. […] Images were recorded using the Leica LASX software and further processed with Adobe Photoshop and subsequently assembled with Adobe Illustrator.

[2] = tested on: GST-Rab11a-Q70L; assay: GST-pulldown from HEK293 lysates; type: binding; conditions: HEK293 lysates over-expressing Myc-Spir-2, Straw-FMN2-FH2-FSI and GFP-MyoVa-FL; N = 2
Protocol: HEK293 cells were co-transfected with expression vectors encoding Myc-Spir-2-FL, mStrawberry-FMN2-FH2-FSI, eGFP-MyoVa-D-FL and eGFP-MyoVa-D-Q1753R, respectively. 24 hr post transfection, cells were lysed in lysis buffer (25 mM Tris-HCl pH 7.4, 150 mM NaCl, 5 mM MgCl2, 10% (v/v) glycerol, 0.1% (v/v) Nonidet P-40, 1 mM PMSF, protease inhibitor cocktail) and centrifuged at 20,000 x g, 4°C, 20 min to remove insoluble debris. For GST-pulldown assays 65 µg GST-Rab11a-Q70L protein (25 µg GST control) was coupled to GSH-Sepharose 4B beads (1:1 suspension) for 1 hr, 4°C on a rotating wheel. Beads were washed twice with pulldown buffer (25 mM Tris-HCl pH 7.4, 150 mM NaCl, 5 mM MgCl2, 10% (v/v) glycerol, 0.1% (v/v) Nonidet P-40) and subsequently incubated with the cell lysates for 2 hr at 4°C on a rotating wheel. Beads were washed four times with pulldown buffer and bound proteins were eluted with 1x Laemmli buffer and denatured at 95°C for 10 min, then were analyzed by immunoblotting.

[3] = tested on: HeLa cells; assay: Subcellular localization by fluorescence microscopy; type: cell-based; conditions: single expression
Protocol: HeLa cells were seeded on microscope cover glasses and transfected with Myc-epitope-tagged Spir-2 proteins and fluorescently-tagged MyoV and Rab11 proteins as described above. Cells were fixed with paraformaldehyde (3.7% in 1x PBS) for 20 min at 4°C and subsequently permeabilized using 0.2% Triton X-100 (in 1x PBS) for 3.5 min, room temperature. Cells were incubated with anti-c-Myc antibody (9E10, mouse monoclonal, 2 µg/ml, Santa Cruz Biotechnology; RRID: AB_627268) for 1 hr at room temperature and conjugated anti-mouse secondary antibodies (Cy5; from donkey, 3.25 µg/ml, Dianova (RRID: AB_2340820) and TRITC; from donkey, 3.125 µg/ml, Dianova (RRID: AB_2340767)) for 1 hr at room temperature avoiding exposure to light. Finally, cells were mounted on microscope slides with Mowiol and analyzed with a Leica AF6000LX fluorescence microscope, equipped with a Leica HCX PL APO 63x/1.3 GLYC objective and a Leica DFC350 FX digital camera (1392 × 1040 pixels, 6.45 × 6.45 µm pixel size). 3D stacks were recorded and processed with the Leica deconvolution software module. In case of the MyoVa autoregulation/activation experiments, we quantified the MyoVa expression levels. […] In order to clearly distinguish between vesicular and cytoplasmic MyoVa localization, we imaged either high or low expressing cells and determined the sum of pixel gray values per cell as a measure for the MyoVa expression levels. Based on that, we only used cells for the autoregulation analysis having a sum of pixel gray values less than 20 × 10^6 for the expression of GFP-MyoVa-D-FL. Images were recorded using the Leica LASX software and further processed with Adobe Photoshop and subsequently assembled with Adobe Illustrator.

[4] = Analytical gel filtration, individual protein; type: physicochemical; conditions: Figure 5—figure supplement 2
Protocol: (§1) Complex formations were analyzed by analytical gel-filtration using Superdex 200 10/30 Increase column (GE Healthcare Life Sciences) and UV light absorbance at 280 nm and 260 nm and Visible light absorbance at 587 nm at flow rate of 0.75 ml/min in 50 mM Tris pH 8.0, 150 mM NaCl, 2 mM MgCl2, 2 mM TCEP buffer. Fractions of 500 µl were collected and analyzed by SDS-PAGE.
(§2) A 100 µl sample of His6-Rab11a-1-173-Q70L at 6 mg/ml, or of MyoVa-GTD at 5 mg/ml or of His6-mCherry-Spir-2-linker at 6 mg/ml were centrifuged at 10,000 x g for 10 min and injected into the column to monitor reference elution profiles of the individual proteins. The proteins were mixed pairwise to the same final concentrations and incubated 30 min at 4°C in a total volume of 100 µl. The two-component complexes (His6-mCherry-Spir-2-linker:MyoVa-GTD and MyoVa-GTD:His6-Rab11a-1-173-Q70L) were confirmed by the elution peak shifts and SDS-PAGE analysis. […] The tripartite His6-mCherry-Spir-2-linker:MyoVa-GTD:His6-Rab11a-1-173-Q70L complex was analyzed at the same concentration of the individual components and confirmed by SDS-PAGE.

[5] = tested on: Spir-2:MyoVa:Rab11 tripartite complex; assay: Analytical gel filtration; type: binding, Homo sapiens; conditions: Superdex 200 10/30; 50 mM Tris pH 8.0, 150 mM NaCl, 2 mM MgCl2, 2 mM TCEP
Protocol: as §1, §2

[6] = molecular target: GST-MyoVa-GTD; assay: Quantitative GST-pulldown, fluorescence spectroscopy, Spir-2-linker; type: binding, Mus musculus; conditions: 100 nM His6-mCherry-Spir-2-linker (aa 361–519); SPECS buffer (1x PBS, 50 mM NaCl), 20°C; depletion of mCherry fluorescence (ex 548 nm, em 610 nm); ± SEM, n = 4 experimental repeats; read-out: dissociation constant (Kd)
Protocol: (§3) For GST-pulldown assays, 50 µg of GST-fusion protein was coupled to GSH-Sepharose 4B beads (1:1 suspension) for 1 hr at 4°C on a rotating wheel. Beads were washed twice with pulldown buffer and subsequently incubated with 20 µg His6-mCherry-fusion peptides for 2 hr, 4°C on a rotating wheel. In order to identify the tripartite Spir-2:MyoVa:Rab11a complex, 65 µg GST-Spir-2-GTBM-SB-FYVE was coupled to beads. Subsequently, beads were incubated with 40 µg MyoVa-GTD and 35 µg Rab11a-Q70L simultaneously for 2 hr. Beads were washed four times with pulldown buffer and bound proteins were eluted by 1x Laemmli buffer and denatured at 95°C for 10 min. Pulled proteins were analyzed by immunoblotting.
GST-pulldown assays were performed as described above with increasing concentrations of GST-MyoVa/b-GTD fusion proteins and 100 nM His6-mCherry-Spir-2-linker peptide in SPECS buffer (1x PBS, 50 mM NaCl). Beads were pelleted and the supernatant was centrifuged for 10 min at 20,000 x g to remove potential debris that could disturb the fluorescence measurement. […] The concentration-dependent binding of MyoVa/b-GTD to the Spir-2-linker was determined by fluorospectrometric analysis using FluoroMax-4 Spectrofluorometer (Horiba Jobin Yvon, Bensheim, Germany). The mCherry red fluorescent protein was excited at 548 nm and the emission at 610 nm was recorded (emission maximum). […]

[7] = tested on: GST-MyoVa-GTD; assay: GST-pulldown with purified proteins; type: binding, Mus musculus; conditions: purified His6-mCherry-Spir-2-linker mutant L408A,L409A; N = 4
Protocol: as §3

[8] = tested on: GST-MyoVb-GTD; assay: GST-pulldown with purified proteins; type: binding, Homo sapiens; conditions: purified His6-mCherry-Spir-2-linker mutant L408A,L409A; N = 4
Protocol: as §3

For “GFP-MyoVa-FL: eGFP-tagged full-length MyoVa”, the “colocalization with Spir-2 in words” value [1] was “perfect colocalization”, the “pulldown by GST-Rab11a-Q70L in words” value [2] was “able to pull GFP-MyoVa-FL from cell lysates” and the “subcellular localization in words” value [3] was “even cytoplasmic distribution”.

B1: MyoVa-GTD: purified hs-MyoVa-GTD aa 1461 - 1853; in Figure 3E the label stands for AcGFP-mm-MyoVa-GTD donor alone (protein)
chain: IRPVNIPRKEKDFQGMLEYKKEDEQKLVKNLILELKPRGVAVNLIPGLPAYILFMCVRHADYLNDDQKVRSLLTSTINSIKKVLKKRGDDFETVSFWLSNTCRFLHCLKQYSGEEGFMKHNTSRQNEHCLTNFDLAEYRQVLSDLAIQIYQQLVRVLENILQPMIVSGMLEHETIQGVSGVKPTGLRKRTSSIADEGTYTLDSILRQLNSFHSVMCQHGMDPELIKQVVKQMFYIIGAITLNNLLLRKDMCSWSKGMQIRYNVSQLEEWLRDKNLMNSGAKETLEPLIQAAQLLQVKKKTDDDAEAICSMCNALTTAQIVKVLNLYTPVNEFEERVSVSFIRTIQMRLRDRKDSPQLLMDAKHIFPVTFPFNPSSLALETIQIPASLGLGFIS
modifications: left off: His6, N-terminal, cleaved
In the case of B1, the “oligomeric state in solution” value [4] is reported as “monomeric in solution” and the “co-elution in gel filtration in words” value [5] is reported as “co-elution of all three proteins”.

B2: mCherry-Spir2-linker: His6-mCherry-hs-Spir2-linker aa 361 - 519 (protein)
chain: GEGWAARGFGSLPCILNACSGDAKSTSCINLSVTDAGGSAQRPRPRVLLKAPTLAEMEEMNTSEEEESPCGEVTLKRDRSFSEHDLAQLRSEVASGLQSATHPPGGTEPPRPRAGSAHVWRPGSRDQGTCPASVSDPSHPLLSNRGSSGDRPEASMTPD
modifications: left off: His6, N-terminal, kept | mCherry, N-terminal, kept
With B2 the Kd [6] was 728 ± 113 nM and the “co-elution in gel filtration in words” value [5] was “co-elution of all three proteins”.

B3: Spir-2-linker-LALA: His6-mCherry-hs-Spir2-linker-L408A,L409A (protein)
chain: B2 chain with L48A, L49A
modifications: left off: His6, N-terminal, kept | mCherry, N-terminal, kept
notes: His6-mCherry-hs-Spir2-linker-L408A,L409A
In the case of B3, the “binding to GST-MyoVa-GTD in words” value [7] is reported as “largely impairs binding” and the “binding to GST-MyoVb-GTD in words” value [8] is reported as “largely impairs binding”.
